Results taken from patent US20210269521A1 (L AND L BIOPHARMA, published 2021).

Legend:
[1] = target: T1, human TIM-3 extracellular domain-human IgG1 Fc fusion protein (human, UniProt Q8TDQ0 22-199); experiment: ELISA
T1 construct: Made in house or bought (ACROBiosystems TM3-H5258); also called TIM-3-hFc; not shown: human IgG1 Fc
Protocol: Goat-anti-hFc (Jackson, 109-005-008) was diluted to a concentration of 1 μg/ml with PBS buffer (pH 7.4) and added to a 96-well microplate (Corning, CLS3590-100EA) at a volume of 50 μl/well, then incubated in an incubator at 37° C. for 2 hours (Or the antigen TIM-3 was directly used to coat the microplate with a concentration of 0.5 μg/ml, and then the antibody to be tested was directly added). After discarding the liquid, a blocking solution of 5% skimmed milk (skimmed milk powder purchased from Bright) diluted with PBS was added at 200 μl per well, and the microplate was incubated for 2.5 hours at 37° C. or overnight (16-18 hours) at 4° C. for blocking. The blocking solution was discarded, and the microplate was washed 5 times with PBST buffer (PBS with pH 7.4 containing 0.05% tween-20), then 50 μl/well of 0.5 μg/ml TIM-3-hFc (Example 1) was added and incubated for 2 hours in a 37° C. incubator. After incubation, the microplate was washed 6 times with PB ST. 50 μl/well of supernatant (containing testing antibody) or different concentrations of the antibody to be tested was added, and the microplate was incubated at 37° C. for 2 hours and washed 5 times with PBST. 50 μl/well of 1:2500 diluted HRP-labeled secondary antibody (Jackson Immuno Research, 115-035-003) was added to the microplate, incubating at 37° C. for 1 hour. After washing the microplate 5 times with PBST, 50 μl/well TMB chromogenic substrate (KPL, 52-00-03) was added to the microplate, followed by incubating at room temperature for 10-15 min.

[2] = target: T2, human PD-1 extracellular domain protein expressed in Example 1 (tag not stated) (human, UniProt Q15116 25-170); experiment: ELISA, PD-1 coated
T2 construct: extracellular domain; also called PD-1 protein; not shown: human IgG1 Fc or his tag
Protocol: (§1) PD-1 expressed in Example 1 was diluted to a concentration of 1 μg/ml with PBS buffer, pH 7.4, and added to a 96-well microplate (Corning, CLS3590-100EA) at 50 μl per well, thereby incubating in an incubator at 37° C. for 2 hours. After discarding the liquid, a blocking solution of 5% skimmed milk (Shanghai Shenggong Biological Engineering Co., Ltd., A600669-0250) diluted with PBS was added at 200 μl per well, followed by incubating at 37° C. for 3 hours or 4° C. overnight (16-18 hours)) for blocking. Subsequently, the blocking solution was discarded, and the microplate was washed 5 times with PBST buffer (pH 7.4 PBS containing 0.05% tween-20). […] Subsequently, the microplate was washed 5 times with PBST, then 50 μl/well of 1:2500 diluted HRP-labeled secondary antibody (Jackson Immuno Research, 115-035-003) was added, thereby incubating at 37° C. for 1 hour. After washing the microplate 5 times with PBST, 50 μl/well TMB chromogenic substrate (KPL, 52-00-03) was added, then incubated at room temperature for 5-10 min. Finally, 50 μl/well of 1M H₂SO₄ was added to stop the reaction. […] Go microplate reader (ThermoFisher, 51119200) was used to read the absorption value at 450 nm and the EC50 based on the OD value was calculated.

[3] = target: T2, human PD-1 extracellular domain protein …; experiment: ELISA, EC50 of bispecific over EC50 of the monoclonal control
Protocol: After washing the microplate 5 times with PBST, 50 μl/well TMB chromogenic substrate (KPL, 52-00-03) was added to the microplate, followed by incubating at room temperature for 10-15 min.
as §1

[4] = target: T1, human TIM-3 extracellular domain-human …; experiment: as above

Binder	EC50 [1] [nM]	EC50 [2] [nM]	Multiple of EC50 variation [3] [ratio]	Multiple of EC50 variation [4] [ratio]
bispecific antibody LB246 (bispecific antibody, human IgG4 S228P, kappa) light: DIQMTQSPSSLSASVGDRVTITCHASQGISSNIGWLQQKPGKAFKGLIYQGSNLEDGVPSRFSGSGSGADYTLTISSLQPEDFATYYCVQFAQFPPTFGQGTKLEIKGGGGSGGGGSGGGGSEVQLVESGGGLVKPGGSLRLSCAASGFTFSDYYMAWVRQAPGKGLEWVANINYDGSNTYYLDSLKSRFTISRDNAKNSLYLQMNSLRAEDTAVYYCARGLYYYGGNYFAYWGQGTLVTVSSGGGGSGGGGSGGGGSEIVLTQSPATLSLSPGERATLSCRASKGVSTSGYSYLHWYQQKPGQAPRLLIYLASYLESGVPARFSGSGSGTDFTLTISSLEPEDFAVYYCQHSRDLPLTFGGGTKVEIKRTVAAPSVFIFPPSDEQLKSGTASVVCLLNNFYPREAKVQWKVDNALQSGNSQESVTEQDSKDSTYSLSSTLTLSKADYEKHKVYACEVTHQGLSSPVTKSFNRGECGGGGSGGGGSGGGGSEVQLVESGGGLVKPGGSLRLSCAASGFTFSDYYMAWVRQAPGKGLEWVANINYDGSNTYYLDSLKSRFTISRDNAKNSLYLQMNSLRAEDTAVYYCARGLYYYGGNYFAYWGQGTLVTVSSGGGGSGGGGSGGGGSDIQMTQSPSSLSASVGDRVTITCHASQGISSNIGWLQQKPGKAFKGLIYQGSNLEDGVPSRFSGSGSGADYTLTISSLQPEDFATYYCVQFAQFPPTFGQGTKLEIK heavy: not shown	2.05	5.51	21	12.9
bispecific antibody LB244 (bispecific antibody, human IgG4 S228P, kappa) light: DIQMTQSPSSLSASVGDRVTITCHASQGISSNIGWLQQKPGKAFKGLIYQGSNLEDGVPSRFSGSGSGADYTLTISSLQPEDFATYYCVQFAQFPPTFGQGTKLEIKGGGGSGGGGSGGGGSEVQLVESGGGLVKPGGSLRLSCAASGFTFSDYYMAWVRQAPGKGLEWVANINYDGSNTYYLDSLKSRFTISRDNAKNSLYLQMNSLRAEDTAVYYCARGLYYYGGNYFAYWGQGTLVTVSSGGGGSGGGGSGGGGSEIVLTQSPATLSLSPGERATLSCRASKGVSTSGYSYLHWYQQKPGQAPRLLIYLASYLESGVPARFSGSGSGTDFTLTISSLEPEDFAVYYCQHSRDLPLTFGGGTKVEIKRTVAAPSVFIFPPSDEQLKSGTASVVCLLNNFYPREAKVQWKVDNALQSGNSQESVTEQDSKDSTYSLSSTLTLSKADYEKHKVYACEVTHQGLSSPVTKSFNRGEC heavy: not shown	0.21	0.18	0.68	1.32
bispecific antibody LB147 (bispecific antibody, human IgG4 S228P, kappa, Ab32VL-(G4S)3-ab32VH-(G4S)3-PemVL-κ with PemVH-hIgG4) light: DIQMTQSPSSLSASVGDRVTITCRASENIYSYLTWYQQKPGKAPKLLIYNAKTLAEGVPSRFSGSGSGTDFTLTISSLQPEDFATYYCQQHYGTPLTFGQGTKLEIKGGGGSGGGGSGGGGSEVQLVESGGGLVKPGGSLRLSCAASGFTFSDYYMTWVRQAPGKGLEWVSSINYDGRNTYYLDSLKSRFTISRDNAKNSLYLQMNSLRAEDTAVYYCARGYYYYGSSPNYFDYWGQGTLVTVSSGGGGSGGGGSGGGGSEIVLTQSPATLSLSPGERATLSCRASKGVSTSGYSYLHWYQQKPGQAPRLLIYLASYLESGVPARFSGSGSGTDFTLTISSLEPEDFAVYYCQHSRDLPLTFGGGTKVEIKRTVAAPSVFIFPPSDEQLKSGTASVVCLLNNFYPREAKVQWKVDNALQSGNSQESVTEQDSKDSTYSLSSTLTLSKADYEKHKVYACEVTHQGLSSPVTKSFNRGEC heavy: not shown	0.62	0.056	0.81	0.79
bispecific antibody LB242 (bispecific antibody, human IgG4 S228P, kappa) light: EIVLTQSPATLSLSPGERATLSCRASKGVSTSGYSYLHWYQQKPGQAPRLLIYLASYLESGVPARFSGSGSGTDFTLTISSLEPEDFAVYYCQHSRDLPLTFGGGTKVEIKRTVAAPSVFIFPPSDEQLKSGTASVVCLLNNFYPREAKVQWKVDNALQSGNSQESVTEQDSKDSTYSLSSTLTLSKADYEKHKVYACEVTHQGLSSPVTKSFNRGECGGGGSGGGGSGGGGSEVQLVESGGGLVKPGGSLRLSCAASGFTFSDYYMAWVRQAPGKGLEWVANINYDGSNTYYLDSLKSRFTISRDNAKNSLYLQMNSLRAEDTAVYYCARGLYYYGGNYFAYWGQGTLVTVSSGGGGSGGGGSGGGGSDIQMTQSPSSLSASVGDRVTITCHASQGISSNIGWLQQKPGKAFKGLIYQGSNLEDGVPSRFSGSGSGADYTLTISSLQPEDFATYYCVQFAQFPPTFGQGTKLEIK heavy: not shown	0.124	0.084	0.32	0.78

More lines, in order of falling EC50 [1], values ahead:

EC50 [1] [nM]	EC50 [2] [nM]	Multiple of EC50 variation [3] [ratio]	Multiple of EC50 variation [4] [ratio]	Binder
0.391	0.342	1.3	2.46	bispecific antibody LB245 (bispecific antibody, human IgG4 S228P, kappa) light: EIVLTQSPATLSLSPGERATLSCRASKGVSTSGYSYLHWYQQKPGQAPRLLIYLASYLESGVPARFSGSGSGTDFTLTISSLEPEDFAVYYCQHSRDLPLTFGGGTKVEIKRTVAAPSVFIFPPSDEQLKSGTASVVCLLNNFYPREAKVQWKVDNALQSGNSQESVTEQDSKDSTYSLSSTLTLSKADYEKHKVYACEVTHQGLSSPVTKSFNRGECGGGGSGGGGSGGGGSEVQLVESGGGLVKPGGSLRLSCAASGFTFSDYYMAWVRQAPGKGLEWVANINYDGSNTYYLDSLKSRFTISRDNAKNSLYLQMNSLRAEDTAVYYCARGLYYYGGNYFAYWGQGTLVTVSSGGGGSGGGGSGGGGSDIQMTQSPSSLSASVGDRVTITCHASQGISSNIGWLQQKPGKAFKGLIYQGSNLEDGVPSRFSGSGSGADYTLTISSLQPEDFATYYCVQFAQFPPTFGQGTKLEIK heavy: not shown
0.216	0.214	0.81	1.36	bispecific antibody LB243 (bispecific antibody, human IgG4 S228P, kappa) light: DIQMTQSPSSLSASVGDRVTITCHASQGISSNIGWLQQKPGKAFKGLIYQGSNLEDGVPSRFSGSGSGADYTLTISSLQPEDFATYYCVQFAQFPPTFGQGTKLEIKGGGGSGGGGSGGGGSEVQLVESGGGLVKPGGSLRLSCAASGFTFSDYYMAWVRQAPGKGLEWVANINYDGSNTYYLDSLKSRFTISRDNAKNSLYLQMNSLRAEDTAVYYCARGLYYYGGNYFAYWGQGTLVTVSSGGGGSGGGGSGGGGSEIVLTQSPATLSLSPGERATLSCRASKGVSTSGYSYLHWYQQKPGQAPRLLIYLASYLESGVPARFSGSGSGTDFTLTISSLEPEDFAVYYCQHSRDLPLTFGGGTKVEIKRTVAAPSVFIFPPSDEQLKSGTASVVCLLNNFYPREAKVQWKVDNALQSGNSQESVTEQDSKDSTYSLSSTLTLSKADYEKHKVYACEVTHQGLSSPVTKSFNRGECGGGGSGGGGSGGGGSEVQLVESGGGLVKPGGSLRLSCAASGFTFSDYYMAWVRQAPGKGLEWVANINYDGSNTYYLDSLKSRFTISRDNAKNSLYLQMNSLRAEDTAVYYCARGLYYYGGNYFAYWGQGTLVTVSSGGGGSGGGGSGGGGSDIQMTQSPSSLSASVGDRVTITCHASQGISSNIGWLQQKPGKAFKGLIYQGSNLEDGVPSRFSGSGSGADYTLTISSLQPEDFATYYCVQFAQFPPTFGQGTKLEIK heavy: not shown
